Experimental data from PMC5216119, “An allosteric conduit facilitates dynamic multisite substrate recognition by the SCF^Cdc4 ubiquitin ligase” (Nature Communications, 2017).
Changes are numbered by the printed parent chain. Like-named read-outs stand apart in the source and are kept apart here. Square brackets hold non-standard residues; d marks the D form. Ends that are not written are not given here. Peptide text beside a SMILES is read from it. pT = C[C@@H](OP(=O)(O)O)[C@H](N)C(=O)O; pS = N[C@@H](COP(=O)(O)O)C(=O)O

Tests used:
R655Q Cdc4^WD40 [1] = target: T1, R655Q Cdc4^WD40 (yeast, UniProt P07834 367-744, R655Q); assay: other fluorescence titration; intrinsic Trp fluorescence (excitation 298 nm, emission 366 nm); 0.5 μM Cdc4, ligand titrated; 50 mM Tris, 150 mM NaCl, 5 mM DTT, pH 7.5, 20 °C; 1:1 stoichiometry assumed
T1 construct: Cdc4, yeast F-box protein, WD40 domain, residues 367-744, with Arg655Gln in the allosteric pocket; also called Arg655Gln Cdc4^WD40; source: E. coli, purified as the wild type (Ni-NTA, Ulp protease, Ni-NTA, Superdex 200)
T1 sequence (looked up): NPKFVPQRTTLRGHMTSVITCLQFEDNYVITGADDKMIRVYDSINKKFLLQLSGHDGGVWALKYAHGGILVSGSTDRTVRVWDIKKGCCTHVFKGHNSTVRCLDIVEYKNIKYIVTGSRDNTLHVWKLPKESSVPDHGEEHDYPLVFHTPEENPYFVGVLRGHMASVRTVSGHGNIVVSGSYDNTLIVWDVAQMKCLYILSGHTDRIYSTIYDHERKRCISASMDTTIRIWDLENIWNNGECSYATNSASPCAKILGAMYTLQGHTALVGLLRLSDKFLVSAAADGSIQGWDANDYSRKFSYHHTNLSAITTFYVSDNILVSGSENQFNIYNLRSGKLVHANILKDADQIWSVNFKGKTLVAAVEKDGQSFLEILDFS

[2] = target: Cdc4^WD40 (isolated WD40 domain of the yeast F-box protein Cdc4, residues 367-744), wild type (yeast) (UniProt P07834); assay: as above
R664Q Cdc4^WD40 [3] = target: T2, R664Q Cdc4^WD40 (yeast, UniProt P07834 367-744, R664Q); assay: as above
T2 construct: Cdc4, yeast F-box protein, WD40 domain, residues 367-744, with Arg664Gln in the allosteric pocket; also called Arg664Gln Cdc4^WD40; mutant (Arg664Gln) Cdc4^WD40; source: E. coli, purified as the wild type (Ni-NTA, Ulp protease, Ni-NTA, Superdex 200)
T2 sequence (looked up): T1 sequence (looked up) with Q289R, R298Q

R655Q Cdc4^WD40 [4] = target: T3, R655Q Cdc4^WD40 (Saccharomyces cerevisiae, UniProt P07834, R655Q); assay: Intrinsic Trp fluorescence binding, R655Q Cdc4^WD40; design: species or system yeast; conditions: in vitro Trp fluorescence
T3 construct: Cdc4^WD40 (residues 367-744) was expressed from pET-Sumo (Invitrogen); His-SUMO (pET-Sumo vector) (N, cleaved yes); made in house; host or cells: Escherichia coli (host printed only for the NMR samples)

R664Q Cdc4^WD40 [5] = target: T4, R664Q Cdc4^WD40 (Saccharomyces cerevisiae, UniProt P07834, R664Q); assay type: binding, yeast; conditions: in vitro Trp fluorescence
T4 construct: Cdc4^WD40 (residues 367-744) was expressed from pET-Sumo (Invitrogen); His-SUMO (pET-Sumo vector) (N, cleaved yes); made in house; host or cells: Escherichia coli (host printed only for the NMR samples)
Protocol: We assessed the contribution of the allosteric pocket to substrate interactions by mutation of positively charged Arg655 and Arg664 residues, both of which are required for SCF-I2 inhibition. We generated Arg655Gln and Arg664Gln substitution mutants to minimize disruptive steric effects on the allosteric pocket and WD40 domain.
The binding affinities of three different peptides (Sic1^20pS69, Sic1^20pS80 and Sic1^20pS69/S80) for wild-type and mutant (Arg664Gln) Cdc4^WD40 were measured by intrinsic Trp fluorescence-binding experiments. The measurements were carried out by using an ATF 105 spectrometer (AVIV Instruments, Lakewood, NJ) equipped with an automatic titrator. The binding of the peptide fragments were monitored by using intrinsic tryptophan fluorescence with an excitation wavelength of 298 nm and an emission wavelength of 366 nm. All measurements were performed in 50 mM Tris, 150 mM NaCl, 5 mM DTT, pH 7.5 at 20 °C. The concentration of Cdc4 was 0.5 μM for all measurements. […] Association constants were calculated using the formula Ka=1/Kd. Prism 4.0 software (GraphPad Software, San Diego, CA) was used for statistical analysis (non-paired Student t test), and P values <0.05 were considered significant. Each experiment was repeated at least three times.

[6] = target: T5, Cdc4^WD40 (isolated WD40 domain of the yeast F-box protein Cdc4, residues 367-744), wild type (yeast, UniProt P07834 367-744); assay: NMR titration; 2D 13C-1H TROSY HMQC at 10 °C on 200 μM IM-labelled Cdc4^WD40 with increasing concentrations of unlabelled ligand; 100% D2O, 50 mM Na2HPO4 pH 8.0, 150 mM NaCl, 2 mM DTT; conditions: both partners purified
T5 construct: Cdc4, yeast F-box protein, WD40 domain, residues 367-744; For the NMR experiments the protein was U-[15N,2H], Ile-delta1-[13CH3], Met-epsilon-[13CH3] labelled (IM-labelled); also called wt Cdc4^WD40; Cdc4 WD40 domain; source: E. coli BL21(DE3) codonPlus, purified (Ni-NTA, Ulp protease, Ni-NTA, Superdex 200)
T5 sequence (looked up): T1 sequence (looked up) with Q289R

[7] = target: T5, Cdc4^WD40 (isolated WD40 domain of the …); assay: other fluorescence titration; intrinsic Trp fluorescence (excitation 298 nm, emission 366 nm); 0.5 μM Cdc4, ligand titrated; 50 mM Tris, 150 mM NaCl, 5 mM DTT, pH 7.5, 20 °C; 1:1 stoichiometry assumed; conditions: both partners purified
R664Q Cdc4^WD40 [8] = target: T2, R664Q Cdc4^WD40; assay: as above; conditions: both partners purified
[9] = target: T5, Cdc4^WD40 (isolated WD40 domain of the …); assay: ITC; 20 °C; cell 30 μM Cdc4^WD40, syringe 100 μM pSic1; 50 mM Na2HPO4 pH 7.2, 150 mM NaCl, 2 mM β-mercaptoethanol; single-site binding model; conditions: both partners purified
Cdc4-Skp1 = conditions: read-out: Kd for pSic1-Cdc4-Skp1 by intrinsic tryptophan (Trp) fluorescence; cited from earlier work
Cdc4 = conditions: Sic1 phosphorylated on between 4 and 6 low-affinity CPD sites; read-out: Kd of high-affinity Sic1-Cdc4 interaction; cited from earlier work
Excerpt: WD40 domains, and the related Kelch β-propeller domains, mediate protein interactions in many contexts and together form the largest domain family in the human genome. WD40 domain proteins are a predominant class of substrate receptor in the ubiquitin-proteasome system, found in F-box proteins and other subunits of the cullin-RING (CRL) ubiquitin ligases. The WD40 domain of the yeast F-box protein Cdc4 (Cdc4^WD40) recognizes substrates via phosphorylated motifs termed Cdc4 phosphodegrons (CPDs). One of the best characterized Cdc4 substrates is the cyclin dependent kinase inhibitor ...

T4 sequence (P07834 367-744 R664Q): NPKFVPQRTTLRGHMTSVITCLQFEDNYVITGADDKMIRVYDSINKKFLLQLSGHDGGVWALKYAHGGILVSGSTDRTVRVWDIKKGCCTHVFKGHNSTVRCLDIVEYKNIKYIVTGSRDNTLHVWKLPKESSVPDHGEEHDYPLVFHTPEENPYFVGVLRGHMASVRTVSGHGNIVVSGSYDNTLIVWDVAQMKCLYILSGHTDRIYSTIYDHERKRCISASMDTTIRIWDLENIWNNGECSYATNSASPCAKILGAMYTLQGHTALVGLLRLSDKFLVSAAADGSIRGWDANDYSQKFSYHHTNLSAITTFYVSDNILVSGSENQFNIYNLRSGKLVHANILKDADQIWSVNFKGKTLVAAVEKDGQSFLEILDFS

What does the source list for “CycE phosphopeptide (singly phosphorylated high-affinity CPD peptide derived from cyclin E)”?
Kd (R655Q Cdc4^WD40 [1]): 2900 nM; Kd [2]: 2210 nM; Kd (R664Q Cdc4^WD40 [3]): 1470 nM

For CC(=O)NCC(=O)N[C@@H](CC(C)C)C(=O)N[C@@H](CC(C)C)C(=O)N[C@H](C(=O)N1CCC[C@H]1C(=O)N1CCC[C@H]1C(=O)N[C@@H](CCC(N)=O)C(=O)N[C@@H](CO)C(=O)NCC(N)=O)[C@@H](C)OP(=O)(O)O [CycE] (Ac-GLL[pT]PPQSG-NH2; N-terminus and C-terminus assumed), which “change of affinity for Arg655Gln Cdc4^WD40 versus wild-type” value (R655Q Cdc4^WD40 [4]) is on record?
The value was “did not significantly reduce”.

And the “change of affinity for Arg664Gln Cdc4^WD40 versus wild-type” value (R664Q Cdc4^WD40 [5])?
Its value is “did not significantly reduce”.

B1: Ash1^18pT286/pT290/pS294 triphosphopeptide (unlabelled) (peptide)
peptide: AWSI[pT]PPV[pT]PPM[pS]PPTNR
notes: Ash1 transcriptional repressor, 18-residue peptide printed as AWSIpTPPVpTPPMpSPPTNR; the text says derived from Ash1 residues 283-299; the unlabelled form was used for NMR; also called triply phosphorylated Ash1 peptide; the peptide phosphorylated on all three CPDs
Does B1 bind [6]?
Result: binds

B2: pSic1 (N-terminal targeting region of Sic1, residues 1-90, phosphorylated to completion by Cln2-Cdc28-Cks1 kinase) (domain or fragment, yeast, UniProt P38634 1-90, looked up)
chain: MTPSTPPRSRGTRYLAQPSGNTSSSALMQGQKTPQKPSQNLVPVTPSTTKSFKNAPLLAPPNSNMGMTSPFNGLTSPQRSPFPKSSVKRT
modifications: phosphorylated to completion by Cln2-Cdc28-Cks1 kinase; contains 7 of the 9 Sic1 CPD sites (the residues are not listed)
notes: also called pSic1 (1-90); pSic1^1-90
Which results are given for B2?
Kd (R655Q Cdc4^WD40 [1]; both partners purified): 4160 nM; Kd [7]: 1300 nM; Kd (R664Q Cdc4^WD40 [8]): 4960 nM; Kd [9]: 800 ± 120 nM; Kd (Cdc4-Skp1): 600 nM

B3: Sic1: cyclin dependent kinase inhibitor, Cdc4 substrate; here phosphorylated on 4 to 6 CPD sites (protein, UniProt P38634 1-284, looked up)
Protein SIC1: MTPSTPPRSRGTRYLAQPSGNTSSSALMQGQKTPQKPSQNLVPVTPSTTKSFKNAPLLAPPNSNMGMTSPFNGLTSPQRSPFPKSSVKRTLFQFESHDNGTVREEQEPLGRVNRILFPTQQNVDIDAAEEEEEGEVLLPPSRPTSARQLHLSLERDEFDQTHRKKIIKDVPGTPSDKVITFELAKNWNNNSPKNDARSQESEDEEDIIINPVRVGKNPFASDELVTQEIRNERKRAMLRENPDIEDVITYVNKKGEVVEKRRLTDEEKRRFKPKALFQSRDQEH
modifications: phosphorylated
notes: here phosphorylated on 4 to 6 CPD sites
Which Kd (Cdc4) does the source give for B3 here?
The Kd was ~1000 nM.
